Experimental findings from patent US20180346602A1 are described below.

Assay [1] deals with anti-VEGF/ANG2 antibody (IgG1 subclass with mutations P329G/L234A/L235A/I253A/H310A/H435A) [IgG part: P01857]. The assay can be described thus: bridging ELISA; biotinylated and digoxigenylated anti-VEGF/ANG2 antibody bridged by M1.3.17 at 31.25 ng/mL. (In general: ELISA stands for enzyme-linked immunosorbent assay.)
In assay [2] the target is anti-VEGF/ANG2 antibody (IgG1 subclass with mutations P329G/L234A/L235A/I253A/H310A/H435A) (human) [IgG part: P01857]. Nature of the assay: sandwich ELISA in serum; M1.3.17-Bi capture on SA plate; tracer anti-human kappa M1.7.10-Dig; analyte 0.15625 ng/mL.
Assay [3] concerns the target anti-VEGF/ANG2 antibody (IgG1 subclass with mutations P329G/L234A/L235A/I253A/H310A/H435A) [IgG part: P01857]. The assay can be described thus: sandwich ELISA in serum; capture M1.3.17, tracer M1.7.24; anti-VEGF/ANG2 antibody 39.0625 ng/mL.
Assay [4] addresses anti-VEGF/ANG2 antibody (IgG1 subclass with mutations P329G/L234A/L235A/I253A/H310A/H435A) (human) [IgG part: P01857]. Nature of the assay: sandwich ELISA in serum; M1.3.17-Bi capture on SA plate; tracer anti-human kappa M1.7.10-Dig; analyte 0 ng/mL (blank).
Assay [5] has as its target anti-VEGF/ANG2 antibody (IgG1 subclass with mutations P329G/L234A/L235A/I253A/H310A/H435A) [IgG part: P01857]. The assay can be described thus: sandwich ELISA in serum; capture M1.3.17, tracer M1.7.24; anti-VEGF/ANG2 antibody 0 ng/mL (blank).
The target is the same in assay [6]. Nature of the assay: bridging ELISA; biotinylated and digoxigenylated anti-VEGF/ANG2 antibody bridged by M1.3.17 at 3.90625 ng/mL.
In assay [7] the target is anti-VEGF/ANG2 antibody (IgG1 subclass with mutations P329G/L234A/L235A/I253A/H310A/H435A) (human) [IgG part: P01857]. Nature of the assay: sandwich ELISA in serum; M1.3.17-Bi capture on SA plate; tracer anti-human kappa M1.7.10-Dig; analyte 1.25 ng/mL.
In assay [8] the target is cytokine (IL-2) antibody conjugate with the mutations P329G, L234A, L235A, I253A, H310A, and H435A. The assay can be described thus: sandwich ELISA in serum; capture anti-IL2 antibody, tracer M1.7.24; conjugate 0 ng/mL (blank).
Assay [9] concerns the target anti-VEGF/ANG2 antibody (IgG1 subclass with mutations P329G/L234A/L235A/I253A/H310A/H435A) [IgG part: P01857]. Nature of the assay: sandwich ELISA in serum; capture M1.7.10-Bi, tracer M1.7.24-Dig; anti-VEGF/ANG2 antibody 0.078125 ng/mL.

B1: anti-variant (human) Fc-region antibody M1.3.17 (antibody, V domains shown)
VH: EVKLLESGGGLVQPGGSLKLSCAASGIDFRRYWMNWVRQAPGKGLEWIGEIDPDSSTINYTPSLKDKFIISRDNAKNTMYLQMRKVRSEDTALYYCARPYDYGAWFAYWGQGTLVTVSA
VL: QAVVTQESALTTSPGETVTLTCRSTTGAVTTSNYANWVQEKPDHLFTGLIGGTNKRAPGVPARFSGSLIGDKAALTITGAQTEDEAIYFCALWYSDHWVFGGGTKLTVL
With B1, the signal [OD405 nm] worked out at 0.054 OD405 nm in assay [1]; 0.107 OD405 nm in assay [2]; 0.233 OD405 nm in [3]; 0.074 OD405 nm in assay [4]; 0.175 OD405 nm in assay [5]; 0.045 OD405 nm in [6]. Moreover, the signal [OD405 nm] in assay [7] was 0.573 OD405 nm.

B2: anti-variant (human) Fc-region antibody M1.7.24 (antibody, V domains shown)
VH: EVKLLESGGGLVQPGGSLKLSCAASGFDFSRYWMNWVRQAPGKGLEWIGEITPDSSTINYTPSLKDKFIISRDNAKNTLYLQMIKVRSEDTALYYCVRPYDYGAWFASWGQGTLVTVSA
VL: QAVVTQESALTTSPGETVTLTCRSSTGAVTTSNYANWVQEKPDHLFTGLIGGTNKRAPGVPARFSGSLIGDKAALTITGAQTEDEAIYFCALWYSNHWVFGGGTKLTVL
Turning to B2, the signal [OD405 nm] worked out at 0.0475 OD405 nm in assay [8] and 0.096 OD405 nm in [9].
